# Results taken from US12099068B2, “Biomarkers for graft-versus-host disease” (Incyte Corporation, priority 2018, dated 2024).
# B1: CPM (protein, UniProt P14384 18-423, looked up)
# Carboxypeptidase M: LDFNYHRQEGMEAFLKTVAQNYSSVTHLHSIGKSVKGRNLWVLVVGRFPKEHRIGIPEFKYVANMHGDETVGRELLLHLIDYLVTSDGKDPEITNLINSTRIHIMPSMNPDGFEAVKKPDCYYSIGRENYNQYDLNRNFPDAFEYNNVSRQPETVAVMKWLKTETFVLSANLHGGALVASYPFDNGVQATGALYSRSLTPDDDVFQYLAHTYASRNPNMKKGDECKNKMNFPNGVTNGYSWYPLQGGMQDYNYIWAQCFEITLELSCCKYPREEKLPSFWNNNKASLIEYIKQVHLGVKGQVFDQNGNPLPNVIVEVQDRKHICPYRTNKYGEYYLLLLPGSYIINVTVPGHDPHITKVIIPEKSQNFSALKKDILLPFQGQLDSIPVSNPSCPMIPLYRNLPDHS
# B2: TXLNA (protein, UniProt P40222 1-546, looked up)
# Alpha-taxilin: MKNQDKKNGAAKQSNPKSSPGQPEAGPEGAQERPSQAAPAVEAEGPGSSQAPRKPEGAQARTAQSGALRDVSEELSRQLEDILSTYCVDNNQGGPGEDGAQGEPAEPEDAEKSRTYVARNGEPEPTPVVNGEKEPSKGDPNTEEIRQSDEVGDRDHRRPQEKKKAKGLGKEITLLMQTLNTLSTPEEKLAALCKKYAELLEEHRNSQKQMKLLQKKQSQLVQEKDHLRGEHSKAVLARSKLESLCRELQRHNRSLKEEGVQRAREEEEKRKEVTSHFQVTLNDIQLQMEQHNERNSKLRQENMELAERLKKLIEQYELREEHIDKVFKHKDLQQQLVDAKLQQAQEMLKEAEERHQREKDFLLKEAVESQRMCELMKQQETHLKQQLALYTEKFEEFQNTLSKSSEVFTTFKQEMEKMTKKIKKLEKETTMYRSRWESSNKALLEMAEEKTVRDKELEGLQVKIQRLEKLCRALQTERNDLNKRVQDLSAGGQGSLTDSGPERRPEGPGAQAPSSPRVTEAPCYPGAPSTEASGQTGPQEPTSARA
# B3: SERPINA5 (protein, UniProt P05154 26-406, looked up)
# Plasma serine protease …: EMKKRVEDLHVGATVAPSSRRDFTFDLYRALASAAPSQSIFFSPVSISMSLAMLSLGAGSSTKMQILEGLGLNLQKSSEKELHRGFQQLLQELNQPRDGFQLSLGNALFTDLVVDLQDTFVSAMKTLYLADTFPTNFRDSAGAMKQINDYVAKQTKGKIVDLLKNLDSNAVVIMVNYIFFKAKWETSFNHKGTQEQDFYVTSETVVRVPMMSREDQYHYLLDRNLSCRVVGVPYQGNATALFILPSEGKMQQVENGLSEKTLRKWLKMFKKRQLELYLPKFSIEGSYQLEKVLPSLGISNVFTSHADLSGISNHSNIQVSEMVHKAVVEVDESGTRAAAATGTIFTFRSARLNSQRLVFNRPFLMFIVDNNILFLGKVNRP
# B4: PVR (protein, UniProt P15151 21-417, looked up)
# Poliovirus receptor: WPPPGTGDVVVQAPTQVPGFLGDSVTLPCYLQVPNMEVTHVSQLTWARHGESGSMAVFHQTQGPSYSESKRLEFVAARLGAELRNASLRMFGLRVEDEGNYTCLFVTFPQGSRSVDIWLRVLAKPQNTAEVQKVQLTGEPVPMARCVSTGGRPPAQITWHSDLGGMPNTSQVPGFLSGTVTVTSLWILVPSSQVDGKNVTCKVEHESFEKPQLLTVNLTVYYPPEVSISGYDNNWYLGQNEATLTCDARSNPEPTGYNWSTTMGPLPPFAVAQGAQLLIRPVDKPINTTLICNVTNALGARQAELTVQVKEGPPSEHSGISRNAIIFLVLGILVFLILLGIGIYFYWSKCSREVLWHCHLCPSSTEHASASANGHVSYSAVSRENSSSQDPQTEGTR
# B5: VWC2 (protein, UniProt Q2TAL6 28-325, looked up)
# Brorin: SPSIPLEKLAQAPEQPGQEKREHASRDGPGRVNELGRPARDEGGSGRDWKSKSGRGLAGREPWSKLKQAWVSQGGGAKAGDLQVRPRGDTPQAEALAAAAQDAIGPELAPTPEPPEEYVYPDYRGKGCVDESGFVYAIGEKFAPGPSACPCLCTEEGPLCAQPECPRLHPRCIHVDTSQCCPQCKERKNYCEFRGKTYQTLEEFVVSPCERCRCEANGEVLCTVSACPQTECVDPVYEPDQCCPICKNGPNCFAETAVIPAGREVKTDECTICHCTYEEGTWRIERQAMCTRHECRQM
# B6: MEPE (protein, UniProt Q9NQ76 18-525, looked up)
# Matrix extracellular …: PTFQPQTEKTKQSCVEEQRQEEKNKDNIGFHHLGKRINQELSSKENIVQERKKDLSLSEASENKGSSKSQNYFTNRQRLNKEYSISNKENTHNGLRMSIYPKSTGNKGFEDGDDAISKLHDQEEYGAALIRNNMQHIMGPVTAIKLLGEENKENTPRNVLNIIPASMNYAKAHSKDKKKPQRDSQAQKSPVKSKSTHRIQHNIDYLKHLSKVKKIPSDFEGSGYTDLQERGDNDISPFSGDGQPFKDIPGKGEATGPDLEGKDIQTGFAGPSEAESTHLDTKKPGYNEIPEREENGGNTIGTRDETAKEADAVDVSLVEGSNDIMGSTNFKELPGREGNRVDAGSQNAHQGKVEFHYPPAPSKEKRKEGSSDAAESTNYNEIPKNGKGSTRKGVDHSNRNQATLNEKQRFPSKGKSQGLPIPSRGLDNEIKNEMDSFNGPSHENIITHGRKYHYVPHRQNNSTRNKGMPQGKGSWGRQPHSNRRFSSRRRDDSSESSDSGSSSESDGD
# B7: CNTNAP2 (protein, UniProt Q9UHC6 28-1331, looked up)
# Contactin-associated …: APSTSQKCDEPLVSGLPHVAFSSSSSISGSYSPGYAKINKRGGAGGWSPSDSDHYQWLQVDFGNRKQISAIATQGRYSSSDWVTQYRMLYSDTGRNWKPYHQDGNIWAFPGNINSDGVVRHELQHPIIARYVRIVPLDWNGEGRIGLRIEVYGCSYWADVINFDGHVVLPYRFRNKKMKTLKDVIALNFKTSESEGVILHGEGQQGDYITLELKKAKLVLSLNLGSNQLGPIYGHTSVMTGSLLDDHHWHSVVIERQGRSINLTLDRSMQHFRTNGEFDYLDLDYEITFGGIPFSGKPSSSSRKNFKGCMESINYNGVNITDLARRKKLEPSNVGNLSFSCVEPYTVPVFFNATSYLEVPGRLNQDLFSVSFQFRTWNPNGLLVFSHFADNLGNVEIDLTESKVGVHINITQTKMSQIDISSGSGLNDGQWHEVRFLAKENFAILTIDGDEASAVRTNSPLQVKTGEKYFFGGFLNQMNNSSHSVLQPSFQGCMQLIQVDDQLVNLYEVAQRKPGSFANVSIDMCAIIDRCVPNHCEHGGKCSQTWDSFKCTCDETGYSGATCHNSIYEPSCEAYKHLGQTSNYYWIDPDGSGPLGPLKVYCNMTEDKVWTIVSHDLQMQTPVVGYNPEKYSVTQLVYSASMDQISAITDSAEYCEQYVSYFCKMSRLLNTPDGSPYTWWVGKANEKHYYWGGSGPGIQKCACGIERNCTDPKYYCNCDADYKQWRKDAGFLSYKDHLPVSQVVVGDTDRQGSEAKLSVGPLRCQGDRNYWNAASFPNPSSYLHFSTFQGETSADISFYFKTLTPWGVFLENMGKEDFIKLELKSATEVSFSFDVGNGPVEIVVRSPTPLNDDQWHRVTAERNVKQASLQVDRLPQQIRKAPTEGHTRLELYSQLFVGGAGGQQGFLGCIRSLRMNGVTLDLEERAKVTSGFISGCSGHCTSYGTNCENGGKCLERYHGYSCDCSNTAYDGTFCNKDVGAFFEEGMWLRYNFQAPATNARDSSSRVDNAPDQQNSHPDLAQEEIRFSFSTTKAPCILLYISSFTTDFLAVLVKPTGSLQIRYNLGGTREPYNIDVDHRNMANGQPHSVNITRHEKTIFLKLDHYPSVSYHLPSSSDTLFNSPKSLFLGKVIETGKIDQEIHKYNTPGFTGCLSRVQFNQIAPLKAALRQTNASAHVHIQGELVESNCGASPLTLSPMSSATDPWHLDHLDSASADFPYNPGQGQAIRNGVNRNSAIIGGVIAVVIFTILCTLVFLIRYMFRHKGTYHTNEAKGAESAESADAAIMNNDPNFTETIDESKKEWLI
# B8: BACH1 (protein, UniProt O14867 1-736, looked up)
# Transcription regulator …: MSLSENSVFAYESSVHSTNVLLSLNDQRKKDVLCDVTIFVEGQRFRAHRSVLAACSSYFHSRIVGQADGELNITLPEEVTVKGFEPLIQFAYTAKLILSKENVDEVCKCVEFLSVHNIEESCFQFLKFKFLDSTADQQECPRKKCFSSHCQKTDLKLSLLDQRDLETDEVEEFLENKNVQTPQCKLRRYQGNAKASPPLQDSASQTYESMCLEKDAALALPSLCPKYRKFQKAFGTDRVRTGESSVKDIHASVQPNERSENECLGGVPECRDLQVMLKCDESKLAMEPEETKKDPASQCPTEKSEVTPFPHNSSIDPHGLYSLSLLHTYDQYGDLNFAGMQNTTVLTEKPLSGTDVQEKTFGESQDLPLKSDLGTREDSSVASSDRSSVEREVAEHLAKGFWSDICSTDTPCQMQLSPAVAKDGSEQISQKRSECPWLGIRISESPEPGQRTFTTLSSVNCPFISTLSTEGCSSNLEIGNDDYVSEPQQEPCPYACVISLGDDSETDTEGDSESCSAREQECEVKLPFNAQRIISLSRNDFQSLLKMHKLTPEQLDCIHDIRRRSKNRIAAQRCRKRKLDCIQNLESEIEKLQSEKESLLKERDHILSTLGETKQNLTGLCQKVCKEAALSQEQIQILAKYSAADCPLSFLISEKDKSTPDGELALPSIFSLSDRPPAVLPPCARGNSEPGYARGQESQQMSTATSEQAGPAEQCRQSGGISDFCQQMTDKCTTDE
# B9: PAM (protein, UniProt P19021 31-973, looked up)
# Peptidyl-glycine …: FKETTRPFSNECLGTTRPVVPIDSSDFALDIRMPGVTPKQSDTYFCMSMRIPVDEEAFVIDFKPRASMDTVHHMLLFGCNMPSSTGSYWFCDEGTCTDKANILYAWARNAPPTRLPKGVGFRVGGETGSKYFVLQVHYGDISAFRDNNKDCSGVSLHLTRLPQPLIAGMYLMMSVDTVIPAGEKVVNSDISCHYKNYPMHVFAYRVHTHHLGKVVSGYRVRNGQWTLIGRQSPQLPQAFYPVGHPVDVSFGDLLAARCVFTGEGRTEATHIGGTSSDEMCNLYIMYYMEAKHAVSFMTCTQNVAPDMFRTIPPEANIPIPVKSDMVMMHEHHKETEYKDKIPLLQQPKREEEEVLDQGDFYSLLSKLLGEREDVVHVHKYNPTEKAESESDLVAEIANVVQKKDLGRSDAREGAEHERGNAILVRDRIHKFHRLVSTLRPPESRVFSLQQPPPGEGTWEPEHTGDFHMEEALDWPGVYLLPGQVSGVALDPKNNLVIFHRGDHVWDGNSFDSKFVYQQIGLGPIEEDTILVIDPNNAAVLQSSGKNLFYLPHGLSIDKDGNYWVTDVALHQVFKLDPNNKEGPVLILGRSMQPGSDQNHFCQPTDVAVDPGTGAIYVSDGYCNSRIVQFSPSGKFITQWGEESSGSSPLPGQFTVPHSLALVPLLGQLCVADRENGRIQCFKTDTKEFVREIKHSSFGRNVFAISYIPGLLFAVNGKPHFGDQEPVQGFVMNFSNGEIIDIFKPVRKHFDMPHDIVASEDGTVYIGDAHTNTVWKFTLTEKLEHRSVKKAGIEVQEIKEAEAVVETKMENKPTSSELQKMQEKQKLIKEPGSGVPVVLITTLLVIPVVVLLAIAIFIRWKKSRAFGDSEHKLETSSGRVLGRFRGKGSGGLNLGNFFASRKGYSRKGFDRLSTEGSDQEKEDDGSESEEEYSAPLPALAPSSS
# Test system: plasma proteins
# Experiment: Plasma proteins modulated between baseline and day 28 in responders (CR, VGPR, PR; n = 19), Example 6 (Table 13)
# Type: in vivo, human
# Details: plasma protein (OLINK NPX); responders (CR, VGPR, PR; n = 19); itacitinib 200 mg or 300 mg QD with corticosteroids; day 28 vs baseline
# How it was run: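 Plasma at baseline/screening and day 28 profiled for >1000 proteins by OLINK proximity extension assay, reported as NPX (log2). Steroid-naive and steroid-refractory patients pooled. Paired and unpaired t tests, ANOVA and Pearson correlation applied; significance at P<0.05.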
Molecule,"Fold Change, Increased Expression from Baseline to Day 28","Fold Change, Decreased Expression from Baseline to Day 28"
B1,1.1479,–
B2,–,−1.5277
B3,1.2683,–
B4,1.1964,–
B5,1.3331,–
B6,–,−1.4941
B7,–,−1.3091
B8,–,−1.4794
B9,1.1653,–
